# Measured values published in patent US9156883B2, “Binding molecules for human factor VIII and factor VIII-like proteins” (DYAX CORP., priority 1999, dated 2015).
# Positions of bridges follow the written chain, without caps; N, C: chain ends. No end group written: not given here. *: point of attachment. NHNH2 = NN*
# How the values were obtained:
# [1] = molecular target: T1, factor VIII-like polypeptide (REFACTO®) (Homo sapiens, UniProt P00451); experiment: Affinity chromatography capture and elution of REFACTO® on immobilized peptide columns; type: binding; settings: bound material eluted in the presence of ethylene glycol
# T1 construct: amino acids 1-743 and 1638 through 2332 of human factor VIII; purchased Genetics Institute, Inc. (Cambridge, Mass.)
# T1 sequence (P00451 20-762): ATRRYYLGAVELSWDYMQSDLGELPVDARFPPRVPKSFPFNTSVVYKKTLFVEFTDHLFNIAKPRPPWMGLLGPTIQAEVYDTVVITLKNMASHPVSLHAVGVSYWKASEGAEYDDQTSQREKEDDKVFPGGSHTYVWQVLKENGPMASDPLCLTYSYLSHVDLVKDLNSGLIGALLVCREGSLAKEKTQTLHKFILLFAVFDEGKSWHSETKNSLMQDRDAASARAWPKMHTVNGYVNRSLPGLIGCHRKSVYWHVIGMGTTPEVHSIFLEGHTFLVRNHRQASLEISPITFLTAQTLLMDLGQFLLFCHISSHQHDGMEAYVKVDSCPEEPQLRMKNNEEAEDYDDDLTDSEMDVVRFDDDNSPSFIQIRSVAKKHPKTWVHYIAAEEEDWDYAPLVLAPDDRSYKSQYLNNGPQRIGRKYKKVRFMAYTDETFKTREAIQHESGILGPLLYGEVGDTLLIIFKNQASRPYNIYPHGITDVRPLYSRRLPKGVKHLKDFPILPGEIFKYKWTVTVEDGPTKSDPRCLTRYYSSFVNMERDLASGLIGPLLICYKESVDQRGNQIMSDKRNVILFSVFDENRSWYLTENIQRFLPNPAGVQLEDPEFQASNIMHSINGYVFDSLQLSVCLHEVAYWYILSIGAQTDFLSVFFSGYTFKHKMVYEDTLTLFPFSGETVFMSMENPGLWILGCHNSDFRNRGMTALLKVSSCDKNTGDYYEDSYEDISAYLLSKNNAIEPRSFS
# T1 sequence (P00451 1657-2351): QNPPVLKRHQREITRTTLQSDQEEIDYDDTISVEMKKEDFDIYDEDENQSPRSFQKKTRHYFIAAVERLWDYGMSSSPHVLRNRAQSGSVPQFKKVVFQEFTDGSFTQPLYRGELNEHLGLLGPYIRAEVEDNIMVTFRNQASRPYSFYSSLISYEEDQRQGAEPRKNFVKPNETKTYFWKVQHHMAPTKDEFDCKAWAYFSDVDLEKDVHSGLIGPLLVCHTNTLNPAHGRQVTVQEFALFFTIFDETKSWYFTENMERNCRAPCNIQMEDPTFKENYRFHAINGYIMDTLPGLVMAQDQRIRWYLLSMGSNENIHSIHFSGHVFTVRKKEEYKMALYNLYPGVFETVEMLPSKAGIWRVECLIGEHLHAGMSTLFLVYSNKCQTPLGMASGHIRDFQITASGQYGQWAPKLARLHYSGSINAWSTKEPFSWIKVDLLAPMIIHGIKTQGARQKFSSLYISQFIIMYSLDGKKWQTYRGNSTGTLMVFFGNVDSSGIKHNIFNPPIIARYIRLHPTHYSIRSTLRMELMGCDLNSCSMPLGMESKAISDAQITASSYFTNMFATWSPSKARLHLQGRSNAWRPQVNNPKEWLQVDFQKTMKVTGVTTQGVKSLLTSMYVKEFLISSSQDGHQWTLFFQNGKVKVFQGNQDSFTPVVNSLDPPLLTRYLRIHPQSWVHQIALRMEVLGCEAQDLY
# Experimental: The candidate ligands were immobilized onto a formyl-substituted ethylene glycol-methacrylate chromatographic resin (Toyopearl Formyl 650-M, pore size of ˜1000 Å; TosoHaas, Montgomeryville, Pa.). The hydrazide-containing peptides were immobilized by facilitating hydrazone bond formation, the GI-1 and -2 peptides were immobilized via reductive amination using NaCNBH3. The amount of polypeptide immobilized on the solid support was determined by quantifying the amount of free polypeptide remaining in solution. The amount of ligand immobilized per ml of resin was in the range of 0.7-1.5 μmol for the hydrazine-immobilized peptides.
# The nine peptides were evaluated by affinity chromatography for their ability to capture the REFACTO® described in Example I, under specific binding and release conditions.
# The factor VIII-like polypeptide (REFACTO®) was diluted in SP Buffer to a concentration of 150 μg/ml. The affinity resins (˜350 μl) were each packed into glass columns, and approximately 150 μg of the factor VIII target was applied to the prepared affinity columns at a flow rate of 200 μl/minute (linear velocity of 170 cm/hour). […] Fractions were collected and the mass and activity of recovered factor VIII-like polypeptide was determined by reversed-phase HPLC and by enzymatic assay.
# For the mass determination, a standard curve with REFACTO® (0-200 μg) was generated and the amount present in each fraction was calculated according to techniques well known in the art. Reversed-phase HPLC in the presence of 20 mM EDTA was used to disrupt the REFACTO® molecule into its component subunits, which were eluted with a gradient of acetonitrile/0.01% TFA. The activity assay was a Factor IX-, X-based assay. The results for each affinity resin are set forth below (Table 6).
# REFACTO® = molecular target: T2, REFACTO® (Homo sapiens, UniProt P00451); experiment: Comparative batch binding and elution of REFACTO® with regenerated immobilized ligands; settings: target REFACTO® 100 U/ml in modified Buffer 1
# T2 construct: amino acids 1-743 and 1638 through 2332 of human factor VIII; purchased Genetics Institute, Inc. (Cambridge, Mass.)
# T2 sequence (P00451 20-762): T1 sequence (P00451 20-762)
# T2 sequence (P00451 1657-2351): T1 sequence (P00451 1657-2351)
# From the text: A commercial ELISA kit (IMUBIND fVIII ELISA kit, Product #884, American, Inc., Greenwich, Conn.) developed to detect factor VIII was used according to the manufacturer's specifications in order to detect both the REFACTO® and the nhfVIII targets. The kit employs a sandwich ELISA assay in which the target is captured by an immobilized monoclonal antibody and the captured target is detected with a second monoclonal antibody-horseradish peroxidase (HRP) conjugate. Addition of the peroxidase substrate and its subsequent reaction with the HRP produces a blue color (detected at 630 nm) which changes to yellow (detected at 450 nm) on addition of the 0.5N sulfuric acid stop solution. Color response is calibrated with factor VIII standards provided by the manufacturer.
# Following the pH 2 washes, the beads were washed once in PBS containing 0.05% azide and stored at 4° C.
# A sample of nhfVIII was diluted to a final concentration of 100 U/ml by addition of 2.32 ml H2O, 180 μl 1M NH4OAc, pH 6.3 (to 72 mM), and 1 μl Tween 80 (to 0.04%). REFACTO® stock solution was diluted to 100 U/ml in a modified Buffer 1, in which the NaCl concentration was reduced from […] to 330 mM.
# Immobilized peptides were tested for binding to nhFVIII in comparison with REFACTO®. […] Next, nhfVIII and REFACTO® solutions were mixed with regenerated affinity beads bearing the CS-454, CS-456, and CS-458 ligands in a comparative batch purification procedure.
Substance,capture of the factor VIII target by the affinity resin (in words) [1],% of Total Recovered in: Eluate (REFACTO®) [%],% of Total Recovered in: Unbound (REFACTO®) [%],% of Total Recovered in: Wash (REFACTO®) [%]
AEGTGDFGCSWLFPCPFDPGPEGGGS-NHNH2 (disulfide 9-15 (inferred)) [CS-456],captured virtually all of the factor VIII target applied,–,–,–
AEGTGDHLCGAWFRPCDADPGPEGGGS-NHNH2 (disulfide 9-16 (inferred)) [CS-454],captured virtually all of the factor VIII target applied,–,–,–
AEGTGDFCWVFAFDHCHDPGPEGGGS-NHNH2 (disulfide 8-16 (inferred)) [CS-458],–,27,59,14
